Measurements reported in US20110008356A1.

Target: Human IL-17RC:Fc (human) (UniProt Q8NAC3)
Test: SPR (BIAcore 3000), receptor:Fc captured by anti-human Fc, cytokine as analyte, koff/kon, 1:1 Langmuir fit

Sequence of Human IL-17A (Q16552 20-155 limits assumed): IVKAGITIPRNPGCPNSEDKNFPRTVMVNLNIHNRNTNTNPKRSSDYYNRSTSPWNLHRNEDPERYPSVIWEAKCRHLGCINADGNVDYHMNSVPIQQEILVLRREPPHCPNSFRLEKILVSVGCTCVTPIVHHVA

| Substance | Kd [nM] |
| --- | --- |
| Human IL-17A (from UniProt Q16552 20-155) (ligand) | 0.05 |
| Mouse IL-17F (from UniProt Q7TNI7 29-161) (ligand) | 0.03 |
